Legend:
MCF7 CARM1 KO cells [1] = test: Total cellular ADMA levels, stable expression, western blot; format: cell-based, human; settings: stable expression in MCF7 CARM1 KO cells; compared with CARM1 FL and CARM1 28–608
Text: We next sought to assess the impact of CARM1 N-terminal deletion in cells stably expressing mutant enzymes. […] To quantify the affected ADMA-containing peptides in MCF7 CARM1 KO and CARM1 140–608 expressing cells, we employed our quantitative MS method (Fig. 1a) using CARM1 28–608 as a reference for normalization (Supplementary Data 4). […] The magnitude of reduction in CARM1 140–608 cells, however, was slightly less than that in the CARM1 KO cells. […] As indicated by R^2 of 0.65, noticeable differences existed between the levels of ADMA-containing peptides in cells expressing the N-terminal truncation of CARM1 and CARM1 28–608 control (Supplementary Fig. 4f).
Cells were collected by trypsinization, washed with Dulbecco's phosphate buffer saline (Life Technologies, Carlsbad, CA) and lysed by suspension in lysis buffer (50 mM Tris-HCl pH 8.0, 150 mM NaCl, 10% glycerol, 0.5% Triton X-100 and 1 × protease inhibitor cocktail (Sigma-Aldrich)). After brief sonication followed by centrifugation, total protein was quantified using the BioRad Protein Assay (BioRad, Hercules, CA), and 20 μg protein was resolved by SDS–PAGE. Proteins were transferred to a nitrocellulose membrane for 1.5 h at 350 mA. Membranes were blocked with 5% nonfat milk at room temperature for 1 h and incubated overnight with diluted primary antibody at 4 °C. […]

[2] = test system: total cell lysates derived from MCF7 CARM1 KO cells; test: In vitro methylation of total cell lysates by recombinant CARM1 proteins, autoradiography; format: biochemical, human; settings: 3H-SAM, 1–4 h, 30 °C
Protocol: The FL and N-terminal domain-deleted version of human CARM1 cDNAs, and other PRMT FL cDNAs were cloned into pFN21K Halo Tag CMV Flexi mammalian expression vector (Promega, Madison, WI) using the unique Sgfl and Pmel site[55]. To express the protein, DNA constructs were transiently transfected into HEK293T CARM1 KO cells in 15 cm dishes using transIT-LT1 reagent (Mirus Bio, Madison, WI) according to the manufacturer's protocol. Proteins were allowed to express for 48 h. Cell pellets were then collected and lysed in lysis buffer (50 mM HEPES, pH 7.5, 150 mM NaCl, 0.005% NP-40, 0.5 mM EDTA, supplemented with 1 × protease inhibitor cocktail before use). The cells were sonicated on ice using a Branson Sonifier 450 with a microtip at 35% amplitude (10 s on, 30 s off, 6 cycles). […] The resin was centrifuged at 3,000 r.p.m. for 5 min, and the supernatant containing the cleaved protein was collected and protein concentration was determined using the Bradford assay (Thermo Scientific, Rockford, IL). Protein purity was assessed by running SDS–PAGE and Coomassie Blue staining.
Purified recombinant enzyme and substrates were incubated in methylation buffer (50 mM Tris-HCl, pH 8.0, 100 mM NaCl and 0.5 mM EDTA) for 1–4 h at 30 °C in the presence of 1 μl radioactive S-adenosyl-L-[methyl-^3H] methionine. […] Protein methylation was detected by autoradiography.

MCF7 CARM1 KO cells [3] = test: Quantitative MS of ADMA-containing peptides in MCF7 CARM1 KO cells expressing CARM1 28-608 or CARM1 140-608, and in CARM1 KO; format: cell-based, human; settings: stable CARM1 140–608 in MCF7 CARM1 KO cells; reference CARM1 28–608; three biological replicas

B1: CARM1 140–608: CARM1 140–608 lacks the first 140 residues encompassing the EVH1 domain (protein)
chain: RTEESSAVQYFQFYGYLSQQQNMMQDYVRTGTYQRAILQNHTDFKDKIVLDVGCGSGILSFFAAQAGARKIYAVEASTMAQHAEVLVKSNNLTDRIVVIPGKVEEVSLPEQVDIIISEPMGYMLFNERMLESYLHAKKYLKPSGNMFPTIGDVHLAPFTDEQLYMEQFTKANFWYQPSFHGVDLSALRGAAVDEYFRQPVVDTFDIRILMAKSVKYTVNFLEAKEGDLHRIEIPFKFHMLHSGLVHGLAFWFDVAFIGSIMTVWLSTAPTEPLTHWYQVRCLFQSPLFAKAGDTLSGTCLLIANKRQSYDISIVAQVDQTGSKSSNLLDLKNPFFRYTGTTPSPPPGSHYTSPSENMWNTGSTYNLSSGMAVAGMPTAYDLSSVIASGSSVGHNNLIPLANTGIVNHTHSRMGSIMSTGIVQGSSGAQGSGGGSTSAHYAVNSQFTMGGPAISMASPMSIPTNTMHYGS
modifications: left off: FLAG, end not stated, kept
notes: CARM1 140–608 lacks the first 140 residues encompassing the EVH1 domain
Cellular protein (ADMA) methylation levels (MCF7 CARM1 KO cells [1]): drastically decreased levels of cellular protein methylation
Total protein methylation of cell lysate [2]: substantial reduction of total protein methylation
Abundance of ADMA-containing peptides (MCF7 CARM1 KO cells [3]): massive reduction in abundances of ADMA-containing peptides

Source: PMC5458078, “Global mapping of CARM1 substrates defines enzyme specificity and substrate recognition” (Nature Communications, 2017)
